Data as given in US6294648, “Protein having proteinase inhibitor activity” (Bayer Corporation, dated 2001).

Experiments:
[1] = biological target: T1, Human neutrophil cathepsin G (human, UniProt P08311); assay: enzyme inhibition; 30 min preincubation at 37 C; Suc-AAPF-AMC hydrolysis by fluorescence; Ki* corrected for substrate
T1 sequence: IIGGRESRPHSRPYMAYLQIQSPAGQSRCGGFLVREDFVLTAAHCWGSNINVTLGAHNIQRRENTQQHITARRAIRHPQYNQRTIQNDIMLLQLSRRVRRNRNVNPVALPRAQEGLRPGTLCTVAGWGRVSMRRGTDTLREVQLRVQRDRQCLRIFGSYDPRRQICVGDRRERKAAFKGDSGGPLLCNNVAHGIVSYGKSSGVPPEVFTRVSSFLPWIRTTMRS
Protocol: (§1) The BTL.009 concentration was determined by amino acid analysis. The concentration of human neutrophil elastase, cathepsin G, and proteinase 3 were based on the manufacturer's specifications. […] Hydrolysis of AMC-conjugated peptides was monitored on a Hitachi model F4500 fluorometer (excitation=370 nm, emission=432 nm) over the first 2 minutes of the reaction. Ki* values were determined from plots of fractional rate versus inhibitor concentration, which were fit by nonlinear regression analysis (Enzifitter™ by Bio soft, Cambridge UK) as described (44). Ki values were obtained by correction for the effect of substrate as described (44).

[2] = biological target: T2, Human neutrophil proteinase 3 (human, UniProt P24158); assay: enzyme inhibition; 30 min preincubation at 37 C; Suc-AAPV-AMC hydrolysis by fluorescence; Ki* corrected for substrate
T2 sequence: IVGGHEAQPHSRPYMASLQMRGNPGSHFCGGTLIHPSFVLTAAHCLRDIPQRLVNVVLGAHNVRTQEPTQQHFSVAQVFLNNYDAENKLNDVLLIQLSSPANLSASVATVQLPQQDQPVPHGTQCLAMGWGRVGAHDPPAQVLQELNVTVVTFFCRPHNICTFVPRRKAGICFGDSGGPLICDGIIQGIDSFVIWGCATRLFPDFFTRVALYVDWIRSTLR
Protocol: as §1

[3] = biological target: Human neutrophil elastase (human, UniProt P08246); assay: as above
Protocol: as §1

B1: BTL.009 (other)
chain: KQDVCEMPKETGPCLAYFLHWWYDKKDNTCSMFVYGGCQGNNNNFQSKANCLNTC
Ki [1]: 1800 nM
Ki [2]: 190 nM
Ki [3]: 8 nM
